Test results reported in the supplement of paper PMC10126150.
± gives the standard deviation of the averaged measurements.

Tested on: ATP
Experiment: switch fluorescence ratio, 500 uM ATP over buffer (Cy3 cluster intensity, sum of 5 cycles each) (fold (ratio)); higher = stronger signal-on switching upon ATP binding; sequences stand for … in TCGTCGGCAGCGTCAGATGTGTATAAGAGACAGTTTTTTTTTTTTTTTTTTTTTTTTT…TC
Conditions: aptamer strand: ATP DNA aptamer (quencher-CACCTGGGGGAGTATTGCGGAGGAAGG + anchor), 100 nM annealed; ATP concentration: 500 uM
How it was run: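 Five buffer/ATP imaging cycles were run on Cy3-labelled switching-strand clusters on a modified Illumina MiSeq flow-cell, with NaOH stripping and re-annealing between cycles. In each cycle, clusters annealed to 100 nM quencher-labelled ATP aptamer were imaged in selection buffer, then after 15 min with 500 uM ATP at 22 °C. Per cluster, the fluorescence ratio is summed target-cycle over summed buffer-cycle Cy3 intensity, averaged per switch-domain sequence. Only clusters within 100-1000 RFU were kept.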
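Note: ATP exposure 15 min at 22 °C before imaging.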

Sequence | switch fluorescence ratio
ATGTCAAAAG | 1 ± 0.022
ATGTCAAGGA | 0.985 ± 0.042
ATGTCAGTGT | 0.985 ± 0.074
ATGTCCACTT | 1 ± 0.036
ATGTCCTTAT | 0.988 ± 0.029
ATGTCTTTGA | 1.03 ± 0.038
ATGTGAATTG | 1.01 ± 0.019
ATGTGAGCGG | 1.01 ± 0.038
ATGTGCAGGG | 1.03 ± 0.013
ATGTGGAGGG | 0.983 ± 0.033
ATGTGGCTGA | 1.021 ± 0.0038
ATGTGGGAGG | 1 ± 0.016
ATGTGGGAGT | 0.979 ± 0.034
ATGTGGGATA | 1.01 ± 0.063
ATGTGGGATT | 0.965 ± 0.013
ATGTGGGGCC | 0.995 ± 0.042
ATGTGGTATG | 0.984 ± 0.031
ATGTGTGAAT | 0.997 ± 0.015
ATGTGTGGCT | 1.01 ± 0.022
ATGTGTGTAT | 1.12 ± 0.2
ATGTGTTAGC | 0.999 ± 0.058
ATGTTACCGG | 1.054 ± 0.0038
ATGTTACGTT | 1.02 ± 0.021
ATGTTAGGAA | 1 ± 0.0065
ATGTTATTGC | 1 ± 0.022

Sequence | switch fluorescence ratio
ATGTTATTTG | 0.963 ± 0.022
ATGTTATTTT | 1.013 ± 0.0049
ATGTTGAAGC | 0.9619 ± 0.0078
ATGTTGATCT | 0.983 ± 0.024
ATGTTGGGCA | 1.01 ± 0.028
ATGTTGGTAT | 1 ± 0.022
ATGTTGTCGA | 1.01 ± 0.031
ATGTTGTTGT | 0.981 ± 0.033
ATGTTTAGAA | 0.9607 ± 0.0073
ATGTTTTACG | 0.988 ± 0.049
ATGTTTTAGA | 0.95 ± 0.015
ATGTTTTGCT | 0.965 ± 0.029
ATGTTTTTTT | 0.9915 ± 0.0073
ATTAAACCGG | 0.997 ± 0.024
ATTAAAGCGT | 1 ± 0.016
ATTAAAGGAT | 0.995 ± 0.033
ATTAAAGGGA | 1 ± 0.037
ATTAAAGGGC | 0.992 ± 0.013
ATTAAATAG | 0.9803 ± 0.0081
ATTAAATTAG | 1.04 ± 0.051
ATTAAGACAG | 0.973 ± 0.032
ATTAAGGAGG | 0.99014 ± 0.00011
ATTAAGGGTG | 1.04 ± 0.093
ATTAAGGTAG | 1 ± 0.014
ATTAAGGTCA | 1.064 ± 0.0069

Sequence | switch fluorescence ratio
ATTAAGTGTG | 0.99638 ± 0.00091
ATTAATATGT | 0.999 ± 0.023
ATTAATCGAC | 1.03 ± 0.092
ATTAATCTGA | 0.96 ± 0.029
ATTAATTATC | 0.993 ± 0.031
ATTAATTGTT | 0.993 ± 0.012
ATTACAGGAC | 1.08 ± 0.012
ATTACCGGGG | 1.05 ± 0.035
ATTACGGGGG | 1.01 ± 0.088
ATTACGTCCT | 1.03 ± 0.036
ATTACTAAAT | 1.01 ± 0.02
ATTACTAGGA | 1 ± 0.057
ATTACTGGGG | 0.99 ± 0.019
ATTAGAAATG | 0.9973 ± 0.0062
ATTAGACTTG | 1.01 ± 0.065
ATTAGCAGGC | 1.11 ± 0.012
ATTAGCGTTT | 0.977 ± 0.066
ATTAGGGGGG | 0.998 ± 0.012
ATTAGGGGGT | 0.988 ± 0.036
ATTAGGGTAA | 1.02 ± 0.026
ATTAGGTATA | 0.9712 ± 0.0036
ATTAGGTTCT | 0.97 ± 0.051
ATTAGGTTGG | 0.987 ± 0.027
ATTAGTAAAG | 0.9972 ± 0.0073
ATTAGTCAAT | 1.0167 ± 0.0006

Sequence | switch fluorescence ratio
ATTAGTGAGC | 1.03 ± 0.051
ATTAGTGGCA | 0.982 ± 0.013
ATTAGTTATT | 1.02 ± 0.015
ATTAGTTTGA | 0.985 ± 0.014
ATTATAAAGC | 1.03 ± 0.063
ATTATATTGC | 1.01 ± 0.026
ATTATCACGA | 0.989 ± 0.014
ATTATCCGCT | 1.15 ± 0.014
ATTATGCTG | 0.98 ± 0.05
ATTATGCTGG | 0.994 ± 0.026
ATTATGGGAT | 0.996 ± 0.029
ATTATGGGGA | 0.995 ± 0.016
ATTATGGTCA | 0.994 ± 0.023
ATTATGTTGT | 0.981 ± 0.028
ATTATTAACG | 0.993 ± 0.033
ATTATTCGGT | 0.986 ± 0.013
ATTATTGAGA | 1.036 ± 0.004
ATTATTGGTA | 0.987 ± 0.012
ATTATTGGTC | 0.99 ± 0.029
ATTATTTGCC | 0.99 ± 0.01
ATTCAATTTT | 0.996 ± 0.051
ATTCACCGCG | 1.155 ± 0.0057
ATTCACGGCC | 1.06 ± 0.043
ATTCAGAAGG | 1.01 ± 0.041
ATTCAGCATT | 1.05 ± 0.02

Sequence | switch fluorescence ratio
ATTCATCGTA | 1.0012 ± 0.0006
ATTCATGGGT | 0.998 ± 0.024
ATTCATTTTT | 1.004 ± 0.01
ATTCCTAGAT | 1.002 ± 0.0091
ATTCCTAGTG | 1.03 ± 0.035
ATTCCTTGTA | 0.989 ± 0.039
ATTCGACAGA | 1.02 ± 0.016
ATTCGATAGT | 1.03 ± 0.018
ATTCGATATC | 1.03 ± 0.012
ATTCGATTTC | 1 ± 0.033
ATTCGCGGAA | 1.02 ± 0.029
ATTCGTGTAT | 0.977 ± 0.04
ATTCTACCGC | 1.49 ± 0.08
ATTCTGGGAT | 1.013 ± 0.0027
ATTCTGTGTG | 0.9648 ± 0.0023
ATTCTGTTTG | 0.987 ± 0.043
ATTCTTAGTA | 0.986 ± 0.03
ATTCTTCCGC | 3.88 ± 0.16
ATTGAAAAAC | 1.03 ± 0.022
ATTGAAAGCA | 1.03 ± 0.025
ATTGAAAGTG | 0.9859 ± 0.0074
ATTGAAATGG | 1.02 ± 0.044
ATTGAATGGC | 1.04 ± 0.068
ATTGAATGTA | 0.98 ± 0.016
ATTGAATTCT | 1.02 ± 0.14

Sequence | switch fluorescence ratio
ATTGACTCAG | 1.01 ± 0.012
ATTGAGAGCA | 0.985 ± 0.021
ATTGAGCAAA | 1.11 ± 0.056
ATTGAGCGGA | 1.0358 ± 0.001
ATTGAGCGTG | 1.01 ± 0.015
ATTGAGTCAC | 0.991 ± 0.016
ATTGAGTTGT | 0.947 ± 0.066
ATTGATAGGG | 1.03 ± 0.037
ATTGATATTG | 0.979 ± 0.011
ATTGATGTA | 1.0136 ± 0.00015
ATTGATTGAA | 1.01 ± 0.012
ATTGATTTAT | 0.987 ± 0.045
ATTGATTTGT | 0.975 ± 0.018
ATTGATTTTC | 0.999 ± 0.024
ATTGCCCTTA | 1.06 ± 0.071
ATTGCGCTTC | 1.063 ± 0.0095
ATTGCGGCAC | 1.05 ± 0.024
ATTGCGGGGG | 0.994 ± 0.019
ATTGCGGGTT | 0.981 ± 0.013
ATTGGACCAT | 0.976 ± 0.036
ATTGGAGGGC | 0.96 ± 0.038
ATTGGATGGG | 0.997 ± 0.057
ATTGGATTTT | 1 ± 0.028
ATTGGCACT | 1.03 ± 0.018
ATTGGCGGTT | 1.09 ± 0.1

Sequence | switch fluorescence ratio
ATTGGCTTT | 0.9788 ± 0.0025
ATTGGCTTTA | 1.004 ± 0.0034
ATTGGGAAAG | 1.02 ± 0.041
ATTGGGCACC | 0.998 ± 0.048
ATTGGGCGCT | 0.99269 ± 2.5e-05
ATTGGGCTTC | 1.01 ± 0.015
ATTGGGGCGG | 0.9842 ± 0.0054
ATTGGGGGGT | 0.988 ± 0.015
ATTGGGGTGC | 0.992 ± 0.013
ATTGGGTATG | 0.998 ± 0.044
ATTGGGTTAG | 0.975 ± 0.032
ATTGGGTTTC | 0.982 ± 0.021
ATTGGGTTTG | 1.01 ± 0.021
ATTGGTAACC | 1.01 ± 0.039
ATTGGTATGA | 0.994 ± 0.018
ATTGGTGACG | 1.02 ± 0.047
ATTGGTGATT | 0.974 ± 0.038
ATTGGTGGAG | 1.007 ± 0.0033
ATTGTAAGTG | 1.03 ± 0.088
ATTGTACAGG | 1.033 ± 0.0021
ATTGTAGACC | 1.0225 ± 0.00081
ATTGTAGTGC | 0.97 ± 0.021
ATTGTATAAA | 1.04 ± 0.056
ATTGTATTTA | 0.9842 ± 0.0079
ATTGTCATGG | 0.999 ± 0.028

Sequence | switch fluorescence ratio
ATTGTCGCCG | 1.02 ± 0.043
ATTGTCGTTC | 1.027 ± 0.0098
ATTGTCTTGA | 0.9688 ± 0.0015
ATTGTGAGAC | 0.986 ± 0.01
ATTGTGCTGA | 0.9481 ± 0.0073
ATTGTGCTGT | 0.976 ± 0.043
ATTGTGGATA | 0.95 ± 0.022
ATTGTGGGAA | 0.9843 ± 0.0028
ATTGTGGGAG | 0.972 ± 0.017
ATTGTGGGTT | 1 ± 0.021
ATTGTGTGGT | 1.01 ± 0.026
ATTGTTCTGA | 1.01 ± 0.032
ATTGTTGTTA | 0.98517 ± 0.00068
ATTGTTTTGT | 0.987 ± 0.051
ATTTAAAATC | 0.9614 ± 0.0045
ATTTAACGAG | 1.01 ± 0.021
ATTTAAGGGA | 0.982 ± 0.026
ATTTAATACG | 1.02 ± 0.052
ATTTAATTCG | 1.01 ± 0.022
ATTTACCGGA | 1.04 ± 0.052
ATTTACGAT | 1.02 ± 0.049
ATTTACTATA | 1.07 ± 0.0053
ATTTACTGCG | 1.01 ± 0.041
ATTTACTTGT | 1.05 ± 0.094
ATTTAGCGTC | 0.99 ± 0.016
